In experiment [1] the target is T1, hGLP1R-MMH (N-terminal region of human GLP1R) (Homo sapiens, UniProt P43220).
T1 construct: the N-terminal ectodomain of human GLP1R expressed with a myc-myc hexahistidine tag
As to the kind of experiment: Biacore binding kinetics (surface plasmon resonance). The note with it: 25° C.; for Ka: association rate. Here is the method:
The equilibrium dissociation constant (KD) for GLP1R binding to different unconjugated GLP1R monoclonal antibodies (mAbs) or to GLP1R antibody tethered drug conjugates (ATDCs) was determined using a real-time surface plasmon resonance biosensor using a Biacore 3000, Biacore S200, Biacore 4000, Biacore T-200, or a Sierra Sensor MASS-2 instrument. All binding studies were performed in 10 mM HEPES, 150 mM NaCl, 3 mM EDTA, and 0.05% v/v Surfactant Tween-20, pH 7.4 (HBS-ET) running buffer at 25° C. The Biacore CM5 sensor chip surface was first derivatized by amine coupling with human Fc specific mouse mAb (REGN2567) to capture different GLP1R mAbs or ATDCs. Different concentrations (100, 90, 33.3, 30, 11.1, 10, 3.7, 3.3 and 1.1 nM) of the N-terminal region of human GLP1R expressed with a myc-myc-hexahistidine tag (“hexahistidine tag” disclosed as SEQ ID NO: 441) (hGLP1R-MMH) prepared in HBS-ET running buffer were injected over the GLP1R mAb captured surface for 240 or 300 sec at a flow rate of 50 μL/min and their dissociation in HBS-ET running buffer was monitored for 10 minutes. At the end of each cycle, the GLP1R mAb or ATDC capture surface was regenerated using a 10 sec injection of 20 mM phosphoric acid.
The association rate (ka) and dissociation rate (kd) were determined by fitting the real-time binding sensorgrams to a 1:1 binding model with mass transport limitation using Scrubber 2.0c curve-fitting software. Binding dissociation equilibrium constant (KD) and dissociative half-life (t %2) were calculated from the kinetic rates as: […]

The target in experiment [2] is T2, human GLP1R (Homo sapiens, UniProt P43220).
T2 construct: engineered to express full-length human GLP1R, cynomolgus GLP1R; expressed in transfected cells; host or cells: HEK293/CRE-Luc
T2 sequence (P43220 24-463): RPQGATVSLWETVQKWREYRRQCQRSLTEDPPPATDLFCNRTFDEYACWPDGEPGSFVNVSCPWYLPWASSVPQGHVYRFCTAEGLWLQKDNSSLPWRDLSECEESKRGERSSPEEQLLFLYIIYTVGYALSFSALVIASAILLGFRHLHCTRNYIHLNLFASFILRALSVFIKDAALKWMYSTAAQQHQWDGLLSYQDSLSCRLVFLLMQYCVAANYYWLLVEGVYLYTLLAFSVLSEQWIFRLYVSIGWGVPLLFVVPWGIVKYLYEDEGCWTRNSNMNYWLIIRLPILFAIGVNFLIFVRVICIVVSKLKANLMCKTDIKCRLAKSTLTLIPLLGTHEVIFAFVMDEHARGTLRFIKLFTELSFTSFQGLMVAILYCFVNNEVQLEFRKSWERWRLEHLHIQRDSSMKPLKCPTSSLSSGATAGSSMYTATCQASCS
In words: Flow cytometry cell binding, HEK293/CRE-Luc/hGLP1R (Example 18). The note with it: Table 30, no unit printed in table (text b1840 reads values as M), experiments A, C, D. Here is the method:
GLP1R agonist linker payloads were conjugated to anti-GLP1R antibodies via N-terminal heavy or light chain Glutamine (Q) tags. […] The cell surface binding of the anti-GLP1R ATDCs to human GLP1R (HEK293/CRE-Luc/hGLP1R), cynomolgus GLP1R (HEK293/CRE-Luc/mfGLP1R), and control cells lacking expression of GLP1R (HEK293/CRE-Luc) was assessed via flow cytometry. […] The last well in each row of the plate served as a blank control containing only secondary antibody and was plotted as a continuation of the 3-fold serial dilution. […] Samples were filtered through Pall 96 well plate PP/PE mesh filter system and collected in Costar 96 well plate. Samples were run on the iQue flow cytometer (Intellicyte) and results were analyzed using Forecyte analysis software (Intellicyte) to calculate the mean fluorescent intensity (MFI) after gating for live cells. EC50 values were determined using a four-parameter logistic equation over a 10-point dose response curve (GraphPad Prism). The signal to noise (S/N) was determined by taking the ratio of the highest MFI on the dose response curve to the MFI in the secondary alone wells.
A general note: A flow cytometer gives signals particle by particle.

Experiment [3] concerns HEK293/CRE-Luc cells. In words: Flow cytometry cell binding, HEK293/CRE-Luc control cells (Example 18). The conditions noted are these: Table 30, control cells lacking GLP1R; for EC50: no unit printed in table (text reads values as M); for HEK293/CRE-Luc Flow S/N: signal to noise. Set-up: species or system human. Here is the method:
GLP1R agonist linker payloads were conjugated to anti-GLP1R antibodies via N-terminal heavy or light chain Glutamine (Q) tags. Several resulting anti-GLP1R-GLP1R agonist antibody tethered drug conjugates (ATDCs) and their unconjugated parental antibodies were tested for cell-based binding activity. The cell surface binding of the anti-GLP1R ATDCs to human GLP1R (HEK293/CRE-Luc/hGLP1R), cynomolgus GLP1R (HEK293/CRE-Luc/mfGLP1R), and control cells lacking expression of GLP1R (HEK293/CRE-Luc) was assessed via flow cytometry. For the assay, 61,000-230,000 cells were suspended in PBS, w/2% FBS and 0.2% sodium azide (staining buffer) in 96 well V-bottom plates and incubated for 30 minutes at 4° C. with three-fold serial dilutions of the anti-GLP1R ATDCs, non-binding control ATDCs, or unconjugated anti-GLP1R antibodies. The last well in each row of the plate served as a blank control containing only secondary antibody and was plotted as a continuation of the 3-fold serial dilution. […] Cells were then washed once and stained with a cell viability dye (Live/dead Fixable Green Dead Cell Stain Kit for 488 nm excitation, Molecular Probes cat #L34970) at 1× in PBS for 20 minutes at 4° C. Cells were washed once in staining buffer, fixed for 20 minutes at 4° C. using a 50% solution of Cytofix (BD Biosciences, Cat #554655) diluted in PBS, and washed again in staining buffer. Samples were filtered through Pall 96 well plate PP/PE mesh filter system and collected in Costar 96 well plate. Samples were run on the iQue flow cytometer (Intellicyte) and results were analyzed using Forecyte analysis software (Intellicyte) to calculate the mean fluorescent intensity (MFI) after gating for live cells. EC50 values were determined using a four-parameter logistic equation over a 10-point dose response curve (GraphPad Prism). The signal to noise (S/N) was determined by taking the ratio of the highest MFI on the dose response curve to the MFI in the secondary alone wells.

T1 sequence (P43220 24-139 limits assumed): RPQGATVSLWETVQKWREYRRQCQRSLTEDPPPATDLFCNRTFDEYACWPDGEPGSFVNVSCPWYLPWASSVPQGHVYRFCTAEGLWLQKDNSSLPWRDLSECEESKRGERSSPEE

B1: H4H30439P (antibody, V domains shown)
VH: QVQLVESGGGVVQPGRSLRLSCAASGFTFSGYGIHWVRQAPGKGLVWVAVIWYDGSFKYYADSVKGRFTISRDNSKNTLYLQMNSLRAEDTAVYYCARGDSSSSGRYYYYGMDVWGQGTTVTVSS
VL: DIQMTQSPSSLSASVGDRVTITCRASQGIRNDLGWYQQKPGTAPKRLIFAASSLQSGVPSRFSGSGSGTEFTLTISSLQPEDFATYYCLQHNNYPPTFGGGTKVEIK
What is called Kd is the equilibrium constant for the complex coming apart. A word on the EC50: it is the concentration giving half of the maximal effect. Take B1: the “90 nM hGLP1R.mmh Bound” value in experiment [1] (antibody captured on anti-human Fc surface, 90 nM hGLP1R-MMH) was 152.4 RU. Further, in experiment [1] (hGLP1R-MMH), the Ka came out at 277000 M⁻¹ s⁻¹ and the “dissociation rate constant (kd)” value amounted to 0.000189 s⁻¹. For the same molecule, the Kd in experiment [1] (hGLP1R-MMH, calculated from the kinetic rates) is 0.681 nM. Moreover, the EC50 in experiment [2] is 0.769 nM.

B2: REGN8051 (antibody, V domains shown)
VH: QVQLVESGGGVGQPGRSLRLSCAASGFTFSRNAMHWVRQAPGKGLEWVAVISYDGSNKHYADSVKGRFTISRDNSKNTLYLEMNSLRVEDTAVYYCAKGGIPFDYWGQGTLVTVSS
VL: DIVMTQSPLSSPVTLGQPASISCRSSQSLVHFDGNTYLSWLHQRPGQPPRLLIYKISNRFSGVPDRFSGSGAGTDFTLKISRVEPEDVGVYYCMHATQFPYTFGQGTKLEIK
On to B2, for which, in experiment [1] (hGLP1R-MMH), the Ka worked out at 61900 M⁻¹ s⁻¹ and the “dissociation rate constant (kd)” value amounted to 0.000211 s⁻¹. Moreover, in experiment [3], the EC50 was greater than 100 nM and the “HEK293/CRE-Luc Flow S/N” value worked out at 18.0.

B3: H2aM30341N (antibody, V domains shown)
VH: QVQLQQWGAGLLKPSETLSLTCAVYGGSFSGYYWSWIRQPPGKGLEWIGEINHAGSTNYNPSLKSRITISVDTSKNQFSLKLSSVTAADTAVYYCARGWYYGSGSYHRNWFDPWGQGTLVTVSS
VL: EIVLTQSPGTLSLSPGERATLSCRASQSVYYSYLAWYQQKPGQAPRLLIYGASNRATGIPDRFSGSGSGTDFTLTISRLEPEDFAVYYCQQYGNSPWTFGQGTKVEIK
Turning to B3, in experiment [1] (hGLP1R-MMH), the Ka was found to be 224000 M⁻¹ s⁻¹ and the “dissociation rate constant (kd)” value came to 7.74e-05 s⁻¹. Further, in experiment [3], the EC50 was greater than 100 nM and the “HEK293/CRE-Luc Flow S/N” value came out at 11.8.
